In US20240287154A1, “MC3R AGONIST PEPTIDES” (The Regents of the University of Michigan, priority 2021, published 2024):
Non-standard residues stand in square brackets, D forms with d. Nle = CCCC[C@H](N)C(=O)O

B1: CTX-1121 (peptide)
peptide: Ac-V[Nle][dA]HFR[dW]DRFG-OH
SMILES: CCCC[C@H](NC(=O)[C@@H](NC(C)=O)C(C)C)C(=O)N[C@H](C)C(=O)N[C@@H](Cc1c[nH]cn1)C(=O)N[C@@H](Cc1ccccc1)C(=O)N[C@@H](CCCNC(=N)N)C(=O)N[C@H](Cc1c[nH]c2ccccc12)C(=O)N[C@@H](CC(=O)O)C(=O)N[C@@H](CCCNC(=N)N)C(=O)N[C@@H](Cc1ccccc1)C(=O)NCC(=O)O
B2: CTX-1106 (peptide)
peptide: H-YVE[dA]H[dF]R[dW]DRFG-OH
SMILES: CC(C)[C@H](NC(=O)[C@@H](N)Cc1ccc(O)cc1)C(=O)N[C@@H](CCC(=O)O)C(=O)N[C@H](C)C(=O)N[C@@H](Cc1c[nH]cn1)C(=O)N[C@H](Cc1ccccc1)C(=O)N[C@@H](CCCNC(=N)N)C(=O)N[C@H](Cc1c[nH]c2ccccc12)C(=O)N[C@@H](CC(=O)O)C(=O)N[C@@H](CCCNC(=N)N)C(=O)N[C@@H](Cc1ccccc1)C(=O)NCC(=O)O
B3: CTX-1107 (peptide)
peptide: H-YV[Nle]GH[dF]R[dW]D-NH2
SMILES: CCCC[C@H](NC(=O)[C@@H](NC(=O)[C@@H](N)Cc1ccc(O)cc1)C(C)C)C(=O)NCC(=O)N[C@@H](Cc1c[nH]cn1)C(=O)N[C@H](Cc1ccccc1)C(=O)N[C@@H](CCCNC(=N)N)C(=O)N[C@H](Cc1c[nH]c2ccccc12)C(=O)N[C@@H](CC(=O)O)C(N)=O
B4: CTX-1109 (peptide)
peptide: H-YV[Nle][dA]H[dF]R[dW]D-NH2
SMILES: CCCC[C@H](NC(=O)[C@@H](NC(=O)[C@@H](N)Cc1ccc(O)cc1)C(C)C)C(=O)N[C@H](C)C(=O)N[C@@H](Cc1c[nH]cn1)C(=O)N[C@H](Cc1ccccc1)C(=O)N[C@@H](CCCNC(=N)N)C(=O)N[C@H](Cc1c[nH]c2ccccc12)C(=O)N[C@@H](CC(=O)O)C(N)=O
B5: CTX-1111 (peptide)
peptide: Ac-SGH[dF]R[dW]D-NH2
SMILES: CC(=O)N[C@@H](CO)C(=O)NCC(=O)N[C@@H](Cc1c[nH]cn1)C(=O)N[C@H](Cc1ccccc1)C(=O)N[C@@H](CCCNC(=N)N)C(=O)N[C@H](Cc1c[nH]c2ccccc12)C(=O)N[C@@H](CC(=O)O)C(N)=O
B6: CTX-1112 (peptide)
peptide: Ac-TGHFR[dW]D-NH2
SMILES: CC(=O)N[C@H](C(=O)NCC(=O)N[C@@H](Cc1c[nH]cn1)C(=O)N[C@@H](Cc1ccccc1)C(=O)N[C@@H](CCCNC(=N)N)C(=O)N[C@H](Cc1c[nH]c2ccccc12)C(=O)N[C@@H](CC(=O)O)C(N)=O)[C@@H](C)O
B7: CTX-1113 (peptide)
peptide: Ac-TGH[dF]R[dW]D-NH2
SMILES: CC(=O)N[C@H](C(=O)NCC(=O)N[C@@H](Cc1c[nH]cn1)C(=O)N[C@H](Cc1ccccc1)C(=O)N[C@@H](CCCNC(=N)N)C(=O)N[C@H](Cc1c[nH]c2ccccc12)C(=O)N[C@@H](CC(=O)O)C(N)=O)[C@@H](C)O

The binders below were run against human MC3R (human, UniProt P41968 1-323) (assay: cell-based or functional assay).
human MC3R, sequence (P41968 whole entry): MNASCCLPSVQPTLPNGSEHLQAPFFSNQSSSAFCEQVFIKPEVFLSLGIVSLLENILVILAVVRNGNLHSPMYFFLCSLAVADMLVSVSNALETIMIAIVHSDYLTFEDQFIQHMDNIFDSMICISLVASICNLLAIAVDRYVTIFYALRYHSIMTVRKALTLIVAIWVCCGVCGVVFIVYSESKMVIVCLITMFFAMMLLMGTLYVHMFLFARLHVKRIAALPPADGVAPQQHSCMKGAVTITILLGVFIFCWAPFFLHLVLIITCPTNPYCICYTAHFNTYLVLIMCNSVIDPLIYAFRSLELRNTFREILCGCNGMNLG

| Binder | MC3R cAMP (EC50) [nM] | MC3R selectivity (relative to MC4R) |
| --- | --- | --- |
| B1 | 3.1 | 2120 |
| YVXAHFRWDRFG (Nle at 3; D-Ala at 4; D-Phe at 6; D-Trp at 8) [CTX-1104] | 3.5 | 27 |
| B2 | 5.8 | 120 |
| B3 | 4.4 | 2.4 |
| B4 | 13.1 | 10.6 |
| Ac-SGHFR[dW]D-NH2 [CTX-1110] | 7400 | – |
| B5 | 17100 | 0.1 |
| YVXAHFRWDRFG (D-Tyr at 1; Nle at 3; D-Ala at 4; D-Trp at 8) [CTX-1125] | 1.7 | 747 |
| B6 | 4090 | 8.6 |
| B7 | 4430 | 0.4 |
| YVXAHFRWDRFG (Nle at 3; D-Ala at 4; D-Trp at 8; C-terminal amide) [CTX-1118] | 1.2 | 59 |
